B1: TPR t1 (parent)
chain: GACCAAUCUGCCCUCAGAGCUCGAGAACAUCUUCGGAUGCAGAGGAGGCAGGCUUCGGUGGCGCGAUAGCGCCAACGUCCUCAACCUCCAAUGCAUCCCACCACAUGAUGAUGCCUGAAGAGCCUUGGUUUUUUG

Variants of: B1
Assay: polymerase ribozyme fitness, log enrichment relative to wild type (log ratio); higher = more active; in vitro selection for triplet polymerase activity
Outline: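 Mutant libraries of both subunits of a heterodimeric triplet polymerase ribozyme were PCR-built, transcribed, and selected once in triplicate, with frozen incubation at −7 °C and capture of gel-excised extended constructs on streptavidin beads before RT-PCR. Illumina sequencing of input and output libraries was filtered to genotypes with ≥10 input reads and ≥1 read per output. Fitness is the logarithm of genotype enrichment over wild-type enrichment, using inverse-variance-weighted replicate averages. The logarithm is base 2.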

Variant | polymerase ribozyme fitness (log ratio)
GACCAAUCUGCCCUCAGAGCUCGAGAACAUCUUCGGAUGCAGAGGAAGCAGGCCUCGGAGGCGCGAUAGCGCCAACGUCCUCAACCUCCAAUGGAUCCCACCACAUGAUGAUGCCUGCAGAGCCUUGGUCUUUUG [G47A U54C U59A C94G A118C U130C] | -5.44
GACCAAUCUGCCCUCAGAGCUCGAGAACAUCUUCGGAUGCAGAGGAAGCAGGCUACGGUUGCGCGAUAGCGCCAACGUCCUCAACCUCCUAAGCAUCCCACCACAUGAUGAUGCCUGAAGAGCCUUGGUUUUUUG [G47A U55A G60U A90U U92A] | -2.67
GACCAAUCUGCCCUCAGAGCUCGAGAACAUCUUCGGAUGCAGAGGACGCAGGCUUCGGUGGCGCGAUAGCUCCAACGUCCUCAACCUCCAAUGCAUCCCACCACAUGAUGAUGCCUGAAGAGCCUUGGUUUUUUG [G47C G71U] | -1.65
GACCAAUCUGCCCUCAGAGCUCGAGAACAUCUUCGGAUGCAGAGGAAGCAGGCUUCGGUGGCGCGAUAGCGCCAACGUCCUCAACCUCCAAUGCAUCCCACCACAUGAUGAUGCCUGAACAGCCUUGGUUUUUUG [G47A G120C] | 0.156
GACCAAUCUGCCCUCAGAGCUCGAGAACAUCUUCGGAUGCAGAGGAAGCAGGCUUCGGUGGCGCGAUAGCGCCAACGCCCUCAACCUCCAAUGCAUCCCACCACAUGAUGAUGCCUGAAGAGCCUUGGUUUUUUG [G47A U78C] | -1.09
GACCAAUCUGCCCUCAGAGCUCGAGAACAUCUUCGGAUGCAGAGGACGCAGGCUUCGGUGGCGCGAUAGCGCCAACGUACUCAACCUCCAAUGCAUCCCACCACAUGAUGAUGCCUGAAGAGCCUUGGUUUUUUG [G47C C79A] | -5.18
GACCAAUCUGCCCUCAGAGCUCGAGAACAUCUUCGGAUGCAGAGGACGUAGGCUUCGGUGGUGCGAUAGCGCCAACGUCCUCAACCUCCAAUGCAUCCCACCACAUGAUGAUGCCUGAAGAGCCUUGGUUUUUUG [G47C C49U C62U] | -2.46
GACCAAUCUGCCCUCAGAGCUCGAGAACAUCUUCGGAUGCAGAGGAAGCAGGCUACGGUCGCGCGAUAGCGCCAACGUCCUCAACCUCCUAAGCAUCCCACCACAUGAUGAUGCCUGAAGAGCCUUGGUUUUUUG [G47A U55A G60C A90U U92A] | -4
GACCAAUCUGCCCUCAGAGCUCGAGAACAUCUUCGGAUGCAGAGGACGCAGCCUUCGGUGGCGCGAUAGCGCCAACGUCCUCAACCUCCAAUGCAUCCCACCACAUGAUGAUGCCUGAAGAGCCUUGGUUUUUUG [G47C G52C] | -3
GACCAAUCUGCCCUCAGAGCUCGAGAACAUCUUCGGAUGCAGAGGACGCAGUCUUCGGUGGCGCGAUAGCGCCGACGUCCUCAACCUCCAAUGCAACCCACCACAUGAUGAUGCCUGAAGAGCCUUGGUUUUUUG [G47C G52U A74G U96A] | -4.89
GACCAAUCUGCCCUCAGAGCUCGAGAACAUCUUCGGAUGCAGAGGACGCAGGCUUCGGUGGCGCGAUAGCGCCAACGUCCUCAACCUACAAUGCAUCCCACCACAUGAUGAUGCCUGAAGAGCAUUGGUUUUUUG [G47C C88A C124A] | -0.557
GACCAAUCUGCCCUCAGAGCUCGAGAACAUCUUCGGAUGCAGAGGACGCAGGCUUCGGUGGUGCGAUAGCGCCAACGUCCUCAACCUUCAAUGCAUCCCACCACAUGAUGAUGCCUGAAGAGCCUUGGUUUUUUG [G47C C62U C88U] | -1.75
GACCAAUCUGCCCUCAGAGCUCGAGAACAUCUUCGGAUGCAGAGGAAGCAGGCUUCGGUGGCGCGAUAGCGCCAACGUCCUCAACCUCCAACGCAUCCCACCACAUGAUGAUGCCUGAAGAGCCUUGGUUUUUUG [G47A U92C] | -2.73
GACCAAUCUGCCCUCAGAGCUCGAGAACAUCUUCGGAUGCAGAGGACGCAGGCUUCGGUGACGCGAUAACGCCAACGUCCUCAACCUCCAAUGCAUCCCACCACAUGAUGCUGCCAGAAGAGCCUUGGUUUUUUG [G47C G61A G69A A111C U116A] | -6.11
GACCAAUCUGCCCUCAGAGCUCGAGAACAUCUUCGGAUGCAGAGGAAGCAGGCUUCGGUGGCGCGAUAGCGCCAACGUCCUCAACCUCCAAUGCAUCCCACCACAUGAUGAUGCCUGAACAGCCUUGGUCUUUUG [G47A G120C U130C] | 0.162
GACCAAUCUGCCCUCAGAGCUCGAGAACAUCUUCGGAUGCAGAGGACUCAGGCUUCGGUGGUGCGAUAGCGCCAACGUCCUCAAUCUCCAAUGCAUCCCACCACAUGUUGUUGCCUGAACACCCUUGGUUUUUUG [G47C G48U C62U C85U A108U A111U G120C G122C] | -6.85
GACCAAUCUGCCCUCAGAGCUCGAGAACAUCUUCGGAUGCAGAGGACGCAGGCUUUGGUGGCGCGAUAGCGCCAACGUCCUCAACCUCCAAUGCAUCCCACCACAAGAUGAUGCCUGAAGAGACUUGGUUUUUUG [G47C C56U U106A C123A] | -1.35
GACCAAUCUGCCCUCAGAGCUCGAGAACAUCUUCGGAUGCAGAGGACGCAGGCUUCGGUGACGCGAUAGCGCCAACGUCCUCAACCACCAAAGCAUCCCACCACAUGAUGAUGCCUGAAGAGCCUUGGUUUUUUG [G47C G61A U87A U92A] | -5.03
GACCAAUCUGCCCUCAGAGCUCGAGAACAUCUUCGGAUGCAGAGGACGCAGGCUUCGGUGGCGCGAUAGCGCCAACGUCCUCAACCUCCAAUGCAUCCCACCACAUGAUGAUGCCUGAAGAGACUUGGUUUUUUG [G47C C123A] | -0.0743
GACCAAUCUGCCCUCAGAGCUCGAGAACAUCUUCGGAUGCAGAGGACGCAGGCUUCGGUGGCGCGAUAGCGCCAACGUCCUCAACCUCCUAUGCAUCCCACCACAUGAUGAUGCCUGAAGAGCCUUGGUUUUUUG [G47C A90U] | -4.3
GACCAAUCUGCCCUCAGAGCUCGAGAACAUCUUCGGAUGCAGAGGACGCAGGCUUCGGUGGCGCGAUAGCGCCAACGUCCUUAACCUCCAAUGCAUCCCACCACAUGAUGAUGCCUGAAGAGCCUUGGUUUUUUG [G47C C82U] | -1.27

Variant | polymerase ribozyme fitness (log ratio)
GACCAAUCUGCCCUCAGAGCUCGAGAACAUCUUCGGAUGCAGAGGACGCAGGCUUCGGUGGCGUGAUAGCGCCAACGUCCUCAACCUCCCAUGCAUCCCACCAUAUGAUGAUGCCUGAAGAGCCUUGGUUUUUUG [G47C C64U A90C C104U] | -2.77
GACCAAUCUGCCCUCAGAGCUCGAGAACAUCUUCGGAUGCAGAGGAAGCAGGCUUCGGUGGCGCGAUAUCGCCAACCUCCUCAACCUCCAAUGCAUCCUACCACAUGAUGAUGGCUGAAGAGCCUUGGUUUUUUG [G47A G69U G77C C99U C114G] | -3.2
GACCAAUCUGCCCUCAGAGCUCGAGAACAUCUUCGGAUGCAGAGGAAGCAGGCAUCGGUGGCGCGAUAGCGCCAACGUCCUCAACCUCCGAUGCAUCCCACCACAUGAUGAUGCCUGAAGAGCCUUGGUUGUUUG [G47A U54A A90G U131G] | -0.834
GACCAAUCUGCCCUCAGAGCUCGAGAACAUCUUCGGAUGCAGAGGACGCAGGCUUUGGUGGCGCGAUAGCGCCAACGUCCUCAACCUCCAAUGCAUCCCACCACAUGAUGAUGCCUGAAGAGCCUUGGUUUUUUG [G47C C56U] | -1.01
GACCAAUCUGCCCUCAGAGCUCGAGAACAUCUUCGGAUGCAGAGGACGCAGGCUUCGGUGGCGCGAUAGCGGCAACGUCCUCAACCUCCAAUGCAUCCCACCACAUGAUGAUACCUGAAGAGCCUAGGUUUUUUG [G47C C72G G113A U126A] | -5.16
GACCAAUCUGCCCUCAGAGCUCGAGAACAUCUUCGGAUGCAGAGGACGCAGGCUUCGGUGGCGCGAUAGUGCCAACGACCUCAACCUCCAAUGCAUCCCACCACAUGAUGAUGCCUGAAGAGCCUUGGUUUUUUG [G47C C70U U78A] | -1.82
GACCAAUCUGCCCUCAGAGCUCGAGAACAUCUUCGGAUGCAGAGGACGCAGGCUUCGGUGUCGCGAUAGCGCCAACGUCCUCAACCUCCAAUGCAUCCCACCACAUGAUGAUGCCUGAAGAGCCUUGGUUUUUUG [G47C G61U] | -2.07
GACCAAUCUGCCCUCAGAGCUCGAGAACAUCUUCGGAUGCAGAGGACGCAGGCGUCGCUGGCGCGAUAUCGCCAACGUCCUCAACCUCCAAUGCAUCCCACCACAUGAUGAUGCCUGAAGAGGCUUGGUUUUUUG [G47C U54G G58C G69U C123G] | 0.703
GACCAAUCUGCCCUCAGAGCUCGAGAACAUCUUCGGAUGCAGAGGACGCAGGCUUCGAUGGCGCGAUAGCGCCAACGUCCUCAACCUCCAAUGCAUCCCACCACAUGAUGAAGCCUUAAGAGCCUUGGUUUUUUG [G47C G58A U112A G117U] | -3.44
GACCAAUCUGCCCUCAGAGCUCGAGAACAUCUUCGGAUGCAGAGGACGCAGGCUUCGGUGGCGCGAUAGCCCCAACGUCCUCAACCUCCAAUGCAUCCCACCACAUGAUGAUGCCUUAAGAGCCUUGGUUUUUUG [G47C G71C G117U] | -4.58
GACCAAUCUGCCCUCAGAGCUCGAGAACAUCUUCGGAUGCAGAGGAAGCAGGCUUCGGUGGCGCGAUAGCGCCAACGUCCUCAACCCCCAAUGCAUCCCACCACAUGAUGAAGCCUGAAGAGCCUUGGUUUUUUG [G47A U87C U112A] | 0.24
GACCAAUCUGCCCUCAGAGCUCGAGAACAUCUUCGGAUGCAGAGGACGCAGGCUUCGGUGGCGCGAUAGCGCCAACGUCCUCAACCUCCAAUGCAUCCCACAACAUGAUGAUGCCUGAAGAGCCUUGGUUUUUUG [G47C C102A] | -3.89
GACCAAUCUGCCCUCAGAGCUCGAGAACAUCUUCGGAUGCAGAGGACGCAGGCUUCGGUGGCGCGAUAGCGCCAACGUCCUCAACCUCCAAUGCAUCCCAACACAUGAUGAUGCCUGAAGAGCCUUGGUUUUUUG [G47C C101A] | -2.59
GACCAAUCUGCCCUCAGAGCUCGAGAACAUCUUCGGAUGCAGAGGACGCAGGUUUCGGUGGCGCGAUAGCGCCAACGUCCUCAACCUCCAAUGCAUCCCACCACAUGAUGAUGCCUGAAGAGCAUUGGUUUUUUG [G47C C53U C124A] | 0.271
GACCAAUCUGCCCUCAGAGCUCGAGAACAUCUUCGGAUGCAGAGGACGCAGGCUUCGGUGGCGCGAUAGCGCCAACGUCCUCAACCUCCAAUGCAUCCCACCACAUGGUGAAGCCUGAAGAGCCUUGGUUUUAUG [G47C A108G U112A U133A] | -5.17
GACCAAUCUGCCCUCAGAGCUCGAGAACAUCUUCGGAUGCAGAGGACGCAGGCUUCGGUGGCGCGUUAGCGCCAACGUCCUCAACCUCCAAUGCAUCCCACCACAUGAUGAUGCCUGAUGUGCCUUGGUUUUUUG [G47C A66U A119U A121U] | -0.0171
GACCAAUCUGCCCUCAGAGCUCGAGAACAUCUUCGGAUGCAGAGGAAGCAGGCUUCGGUGGCGCGAUAGCGCCAACGUCCUCAACCUCCAAUUCAUCCCACCACAUGAUGAUGCCUGAAGAGCCUUGGUUUUUUG [G47A G93U] | -2.71
GACCAAUCUGCCCUCAGAGCUCGAGAACAUCUUCGGAUGCAGAGGAAGCAGGCUUCGGUGGCGCGAUAGCGCCAACGGCCACAACUUCCAAUGCAUCCCACCACAUGAUGAUGCCUGAAGAGCCUUGGUUUUGUG [G47A U78G U81A C86U U133G] | -1.35
GACCAAUCUGCCCUCAGAGCUCGAGAACAUCUUCGGAUGCAGAGGAAGCAGGCUUCGGUGGCGCGAUAGCGCCAACGUCCUCAACCGCCAAUGCAUCCCACCACAUGAUGAUGCCUGAAGAGCCUUGGUUUUUUG [G47A U87G] | -0.336
GACCAAUCUGCCCUCAGAGCUCGAGAACAUCUUCGGAUGCAGAGGACGCAGGCUUCGGUGGCGCGAUAGCGCCAACGUCCUCAACCUCCAAUGCGUCCCACCACAUGAUGAUGCCUGAAGAGCCUUGGUUUUAUG [G47C A95G U133A] | -2.16
GACCAAUCUGCCCUCAGAGCUCGAGAACAUCUUCGGAUGCAGAGGACGCAGGCUUCGGUGGCGCGAUAGCGCCAACUUCCUCAACCUCCAAUGCAUCCCACCACAUGAUGAUGCCGGAAGAGCCUUGGUUUUUUG [G47C G77U U116G] | -3.46
